Test results: paper PMC11602133, “Uncoupling [sequence]’s functions through modification of a protein motif identified by co-ortholog analysis” (Nucleic Acids Research, 2024)

Molecular target: the molecule itself
Assay: native gel or EMSA; in vitro produced proteins (wheat germ TnT) mixed with a DY-682 labelled ~100 bp DNA probe containing a CArG-box (SAUR10 probe); protein complexes read from the shifted bands on DNA; anti-FLAG antibody added for supershift where FUL-FLAG was used

B1: FRUITFULL (FUL), Arabidopsis, in vitro produced (natural protein)
chain: not shown
notes: also called FUL(ST); source: in vitro translated (TnT SP6 High-Yield Wheat Germ Protein Expression System, pSPUTK vector)
stoichiometry N: 2
